Biological target: T1, BCMA (TNFRSF17) (human, UniProt Q02223 1-184, limits assumed)
T1 construct: Member of a commercial human plasma membrane protein array; the construct is not described
T1 sequence (looked up): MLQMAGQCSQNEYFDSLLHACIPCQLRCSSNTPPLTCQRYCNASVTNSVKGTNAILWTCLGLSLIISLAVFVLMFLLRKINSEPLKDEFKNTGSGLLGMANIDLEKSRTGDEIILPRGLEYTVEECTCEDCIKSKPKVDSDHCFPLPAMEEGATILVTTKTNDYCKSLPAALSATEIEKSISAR
Assay: commercial human plasma membrane protein array

B1: anti-human BCMA single chain antibody variable fragment (scFv) (PI61) (scFv)
scFv: QVQLQESGGGVVQPGRSLRLSCAASGFTFSSYGMHWVRQAPGKGLEWVAVISYDGSNKYYADSVKGRFTISRDNSKNTLYLQMNSLRAEDTAVYYCGGSGYALHDDYYGLDVWGQGTLVTVSSGGGGSGGGGSGGGGSQSALTQPASVSGSPGQSITISCTGTSSDVGGYNYVSWYQQHPGKAPKLMIYDVSNRPSGVSNRFSGSKSGNTASLTISGLQAEDEADYYCSSYTSSSTLYVFGSGTKVTVL
notes: also called PI61 scFv
B1: binds.
